Laboratory results as given in publication PMC10567836.

Biological target: CD45 on human peripheral blood mononuclear cells (human (endogenous in PBMC)) (UniProt P08575)
UniProt P08575, sequence (P08575 26-1306): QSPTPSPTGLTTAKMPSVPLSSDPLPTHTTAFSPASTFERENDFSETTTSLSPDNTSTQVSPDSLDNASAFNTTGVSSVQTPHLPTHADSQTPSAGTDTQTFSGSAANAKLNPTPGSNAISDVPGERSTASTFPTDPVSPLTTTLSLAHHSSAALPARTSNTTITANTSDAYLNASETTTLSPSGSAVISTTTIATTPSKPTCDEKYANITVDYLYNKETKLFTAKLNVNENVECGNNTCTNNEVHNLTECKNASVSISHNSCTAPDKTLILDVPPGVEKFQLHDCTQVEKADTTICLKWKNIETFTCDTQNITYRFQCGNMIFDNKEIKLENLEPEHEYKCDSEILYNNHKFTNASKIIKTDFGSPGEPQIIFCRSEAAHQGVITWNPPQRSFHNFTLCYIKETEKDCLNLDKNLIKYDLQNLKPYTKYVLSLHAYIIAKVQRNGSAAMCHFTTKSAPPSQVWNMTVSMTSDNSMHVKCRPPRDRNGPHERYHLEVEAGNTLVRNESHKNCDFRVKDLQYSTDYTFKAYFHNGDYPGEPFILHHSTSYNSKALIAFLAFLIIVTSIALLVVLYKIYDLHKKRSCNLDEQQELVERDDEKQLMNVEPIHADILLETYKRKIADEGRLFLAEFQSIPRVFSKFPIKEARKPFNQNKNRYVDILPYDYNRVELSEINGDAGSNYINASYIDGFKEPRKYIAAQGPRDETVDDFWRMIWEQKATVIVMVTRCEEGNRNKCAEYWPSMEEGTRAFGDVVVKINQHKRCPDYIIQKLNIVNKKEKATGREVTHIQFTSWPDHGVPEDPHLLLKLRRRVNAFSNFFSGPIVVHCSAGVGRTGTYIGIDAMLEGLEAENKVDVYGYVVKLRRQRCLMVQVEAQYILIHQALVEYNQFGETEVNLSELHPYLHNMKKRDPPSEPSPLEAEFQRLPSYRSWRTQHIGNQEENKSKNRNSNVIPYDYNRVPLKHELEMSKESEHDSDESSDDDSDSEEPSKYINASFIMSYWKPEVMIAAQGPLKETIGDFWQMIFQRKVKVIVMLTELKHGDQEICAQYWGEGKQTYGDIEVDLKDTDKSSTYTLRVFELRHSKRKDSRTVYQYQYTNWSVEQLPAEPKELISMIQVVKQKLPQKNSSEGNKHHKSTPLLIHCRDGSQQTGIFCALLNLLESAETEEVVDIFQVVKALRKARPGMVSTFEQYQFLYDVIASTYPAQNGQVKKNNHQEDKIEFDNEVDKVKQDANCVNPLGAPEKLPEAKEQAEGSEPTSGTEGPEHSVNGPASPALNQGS

## HAdV-D64 (Ad19a) protein E3/49K expressed on porcine L23 cells (natural protein)
  phosphorylated p56lck(p505) in CD4+ T cells of human PBMC stimulated for 48 h with L23-E3/49K cells (15–20% with L23-control or L23-UL11 cells), intracellular flow cytometry (% of CD4+ T cells): 40
